Paper PMC7367873, “Dissecting the sequence determinants for dephosphorylation by the catalytic subunits of phosphatases PP1 and PP2A” (Nature Communications, 2020)

B1: PLEKHA7 (protein, UniProt Q6IQ23 1-1121, looked up)
Pleckstrin homology …: MAAATVGRDTLPEHWSYGVCRDGRVFFINDQLRCTTWLHPRTGEPVNSGHMIRSDLPRGWEEGFTEEGASYFIDHNQQTTAFRHPVTGQFSPENSEFILQEEPNPHMSKQDRNQRPSSMVSETSTAGTASTLEAKPGPKIIKSSSKVHSFGKRDQAIRRNPNVPVVVRGWLHKQDSSGMRLWKRRWFVLADYCLFYYKDSREEAVLGSIPLPSYVISPVAPEDRISRKYSFKAVHTGMRALIYNSSTAGSQAEQSGMRTYYFSADTQEDMNAWVRAMNQAAQVLSRSSLKRDMEKVERQAVPQANHTESCHECGRVGPGHTRDCPHRGHDDIVNFERQEQEGEQYRSQRDPLEGKRDRSKARSPYSPAEEDALFMDLPTGPRGQQAQPQRAEKNGMLPASYGPGEQNGTGGYQRAFPPRTNPEKHSQRKSNLAQVEHWARAQKGDSRSLPLDQTLPRQGPGQSLSFPENYQTLPKSTRHPSGGSSPPPRNLPSDYKYAQDRASHLKMSSEERRAHRDGTVWQLYEWQQRQQFRHGSPTAPICLGSPEFTDQGRSRSMLEVPRSISVPPSPSDIPPPGPPRVFPPRRPHTPAERVTVKPPDQRRSVDISLGDSPRRARGHAVKNSSHVDRRSMPSMGYMTHTVSAPSLHGKSADDTYLQLKKDLEYLDLKMTGRDLLKDRSLKPVKIAESDTDVKLSIFCEQDRVLQDLEDKIRALKENKDQLESVLEVLHRQMEQYRDQPQHLEKIAYQQKLLQEDLVHIRAELSRESTEMENAWNEYLKLENDVEQLKQTLQEQHRRAFFFQEKSQIQKDLWRIEDVTAGLSANKENFRILVESVKNPERKTVPLFPHPPVPSLSTSESKPPPQPSPPTSPVRTPLEVRLFPQLQTYVPYRPHPPQLRKVTSPLQSPTKAKPKVEDEAPPRPPLPELYSPEDQPPAVPPLPREATIIRHTSVRGLKRQSDERKRDRELGQCVNGDSRVELRSYVSEPELATLSGDMAQPSLGLVGPESRYQTLPGRGLSGSTSRLQQSSTIAPYVTLRRGLNAESSKATFPRPKSALERLYSGDHQRGKMSAEEQLERMKRHQKALVRERKRTLGQGERTGLPSSRYLSRPLPGDLGSVC
B2: LRRC59 (protein, UniProt Q96AG4 1-307, looked up)
Leucine-rich …: MTKAGSKGGNLRDKLDGNELDLSLSDLNEVPVKELAALPKATILDLSCNKLTTLPSDFCGLTHLVKLDLSKNKLQQLPADFGRLVNLQHLDLLNNKLVTLPVSFAQLKNLKWLDLKDNPLDPVLAKVAGDCLDEKQCKQCANKVLQHMKAVQADQERERQRRLEVEREAEKKREAKQRAKEAQERELRKREKAEEKERRRKEYDALKAAKREQEKKPKKEANQAPKSKSGSRPRKPPPRKHTRSWAVLKLLLLLLLFGVAGGLVACRVTELQQQPLCTSVNTIYDNAVQGLRRHEILQWVLQTDSQQ
B3: JUP (protein, UniProt P14923 1-745, looked up)
Junction plakoglobin: MEVMNLMEQPIKVTEWQQTYTYDSGIHSGANTCVPSVSSKGIMEEDEACGRQYTLKKTTTYTQGVPPSQGDLEYQMSTTARAKRVREAMCPGVSGEDSSLLLATQVEGQATNLQRLAEPSQLLKSAIVHLINYQDDAELATRALPELTKLLNDEDPVVVTKAAMIVNQLSKKEASRRALMGSPQLVAAVVRTMQNTSDLDTARCTTSILHNLSHHREGLLAIFKSGGIPALVRMLSSPVESVLFYAITTLHNLLLYQEGAKMAVRLADGLQKMVPLLNKNNPKFLAITTDCLQLLAYGNQESKLIILANGGPQALVQIMRNYSYEKLLWTTSRVLKVLSVCPSNKPAIVEAGGMQALGKHLTSNSPRLVQNCLWTLRNLSDVATKQEGLESVLKILVNQLSVDDVNVLTCATGTLSNLTCNNSKNKTLVTQNSGVEALIHAILRAGDKDDITEPAVCALRHLTSRHPEAEMAQNSVRLNYGIPAIVKLLNQPNQWPLVKATIGLIRNLALCPANHAPLQEAAVIPRLVQLLVKAHQDAQRHVAAGTQQPYTDGVRMEEIVEGCTGALHILARDPMNRMEIFRLNTIPLFVQLLYSSVENIQRVAAGVLCELAQDKEAADAIDAEGASAPLMELLHSRNEGTATYAAAVLFRISEDKNPDYRKRVSVELTNSLFKHDPAAWEAAQSMIPINEPYGDDMDATYRPMYSSDVPLDPLEMHMDMDGDYPIDTYSDGLRPPYPTADHMLA

Tests used:
[1] = system: GFP-14-3-3β and its binding proteins; assay: GFP-14-3-3β co-IP with LC-MS/MS label-free quantification, untreated versus PP1c-treated; set-up: species or system human; settings: pairwise comparison PP1 vs untreated
[2] = system: GFP-14-3-3β; assay: GFP-14-3-3β co-IP with LC-MS/MS, untreated GFP-14-3-3β versus GFP control (14-3-3 interactome); assay type: binding, human; settings: pairwise comparison untreated vs GFP

Molecule | Difference (log2), PP1 vs untreated [1] | Difference (log2), untreated vs GFP [2]
B1 | 0.2527 log2 | 1.203 log2
B2 | 0.2489 log2 | 0.4854 log2
B3 | 0.2305 log2 | -0.9623 log2
